Measurements published in paper doi:10.1101/2024.02.28.582571.

Target: microtubules assembled from purified bovine brain tubulin (bovine) (UniProt Q6B856)
Assay: optical trap rupture force assay; kinetochores held on polystyrene beads through α-penta-His antibody; dynamic microtubules grown from coverslip-anchored GMPCPP seeds with bovine brain tubulin in BRB80, 1 mM GTP; 23 °C; force ramp 0.25 pN/s

Sequence of UniProt Q6B856 (Q6B856 whole entry, looked up): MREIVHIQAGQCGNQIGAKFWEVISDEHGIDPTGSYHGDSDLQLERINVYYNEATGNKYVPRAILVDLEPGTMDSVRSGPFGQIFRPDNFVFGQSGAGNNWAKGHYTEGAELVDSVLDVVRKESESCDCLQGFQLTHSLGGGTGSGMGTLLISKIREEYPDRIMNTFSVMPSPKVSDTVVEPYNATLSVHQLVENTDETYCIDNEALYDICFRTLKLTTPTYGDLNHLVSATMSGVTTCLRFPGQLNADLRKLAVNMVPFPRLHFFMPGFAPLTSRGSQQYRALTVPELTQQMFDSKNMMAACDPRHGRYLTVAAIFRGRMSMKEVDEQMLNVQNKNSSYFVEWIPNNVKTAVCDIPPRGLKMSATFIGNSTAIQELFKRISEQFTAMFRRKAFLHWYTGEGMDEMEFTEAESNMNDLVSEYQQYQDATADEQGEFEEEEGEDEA

Row | median rupture force | Substance
1 | 7.2 pN | native kinetochores purified from Saccharomyces cerevisiae via Dsn1-6His-3M3DK (from UniProt P40568 1-576) (complex)
2 | 7.5 pN | native kinetochores purified from Kluyveromyces marxianus via Dsn1-6His-3M3DK (from UniProt A0ABX6F0Z3 1-547) (complex)
